To fix the notation:
B1: Prp16p (wild type), LexA-bait fusion [budding yeast] / Brr2 H2-Sec63-2p (wild type), Gal4AD-prey fusion [budding yeast] (parent complex)
chain 1: MGHSGREERIKDIFKELTSKELTPGLLLTLQKLAQKPNTNLEQFIASCKALTKLSSNNPIIFNELLELLKNKSEEDSTGPKKIAPSINKRKKFKIQLDLDDNEDELDSPVQKKPAPTRTLFKRIDKLKAKQLRQYSPTVKDPSPNSEQQTQNGHAETKDYEPTRSEVVEEDREWYDNDDDYGNLVPEPLSELPEEAKLLPVIRNIDNDDALRNTVQLYPIPLKQRMEWIPPFLSKFALENKVPTSIIIGSISETSSQVSALSMVNPFRNPDSEFSANAKRGSKLVALRRINMEHIQQSRDNTTVLNTAMGEVLGLENNNKAKDKSNQKICDDTALFTPSKDDIKHTKEQLPVFRCRSQLLSLIRENQVVVIIGETGSGKTTQLAQYLYEEGYANDRGKSIVVTQPRRVAAISVAKRVAMEMQVPLGKEVGYSIRFEDVTDSECTKLKFVTDGILLRETLLDDTLDKYSCVIIDEAHERSLNTDILLGFFKILLARRRDLKLIITSATMNAKKFSAFFGNAPQFTIPGRTFPVQTIYTSNPVQDYVEAAVSQAVKIHLANDCSSGDILIFMTGQEDIETTFDTLQEKFLQVYSKKFGTANFEEINDIEILPIYSALPADLQFKIFQDLHGTKRKIIIATNIAETSLTIKGIRYVIDCGYSKLKVYNPKIGLDSLVITPISKANADQRSGRAGRTAPGTAYRLYTEDTFKEDMYLQTIPEIQRTNLSNTLLLLKSLDVTDELSKFPFIDKPPLQTFLSSLYELWFIGAIDTSGQLTPLGLQMAKFPLQPSLSKILLIAVRNGCSDEMLTIVSMLSVPQVFYRPKERQKEADIARNKFFIAKSDHLTLLNVFEQWRANNFSSHWCNKHFVQYKSLVRARDIRDQLLTILKSQKIPVISSGKDWDIIKKCICSGFAHQAAKITGLRNYVHLKTGVSVQLHPTSALHGLGDLPPYVVYHELLMTSKEYICCVTSVDPFWLMEYGGLLYDIKRIKNDQEATTTGLFGEHYEHTLDKVEDDIDINIRRCKDMRDSVIQELKMTDNSNKEDKKQKTKKQNILNGKENSMKPFKRRKPFF
chain 2: MTEHETKDKAKKIREIYRYDEMSNKVLKVDKRFMNTSQNPQRDAEISQPKSMSGRISAKDMGQGLCNNINKGLKENDVAVEKTGKSASLKKIQQHNTILNSSSDFRLHYYPKDPSNVETYEQILQWVTEVLGNDIPHDLIIGTADIFIRQLKENEENEDGNIEERKEKIQHELGINIDSLKFNELVKLMKNITDYETHPDNSNKQAVAILADDEKSDEEEVTEMSNNANVLGGEINDNEDDDEEYDYNDVEVNSKKKNKRALPNIENDIIKLSDSKTSNIESVPIYSIDEFFLQRKLRSELGYKDTSVIQDLSEKILNDIETLEHNPVALEQKLVDLLKFENISLAEFILKNRSTIFWGIRLAKSTENEIPNLIEKMVAKGLNDLVEQYKFRETTHSKRELDSGDDQPQSSEAKRTKFSNPAIPPVIDLEKIKFDESSKLMTVTKVSLPEGSFKRVKPQYDEIHIPAPSKPVIDYELKEITSLPDWCQEAFPSSETTSLNPIQSKVFHAAFEGDSNMLICAPTGSGKTNIALLTVLKALSHHYNPKTKKLNLSAFKIVYIAPLKALVQEQVREFQRRLAFLGIKVAELTGDSRLSRKQIDETQVLVSTPEKWDITTRNSNNLAIVELVRLLIIDEIHLLHDDRGPVLESIVARTFWASKYGQEYPRIIGLSATLPNYEDVGRFLRVPKEGLFYFDSSFRPCPLSQQFCGIKERNSLKKLKAMNDACYEKVLESINEGNQIIVFVHSRKETSRTATWLKNKFAEENITHKLTKNDAGSKQILKTEAANVLDPSLRKLIESGIGTHHAGLTRSDRSLSEDLFADGLLQVLVCTATLAWGVNLPAHTVIIKGTDVYSPEKGSWEQLSPQDVLQMLGRAGRPRYDTFGEGIIITDQSNVQYYLSVLNQQLPIESQFVSKLVDNLNAEVVAGNIKCRNDAVNWLAYTYLYVRMLASPMLYKVPDISSDGQLKKFRESLVHSALCILKEQELVLYDAENDVIEATDLGNIASSFYINHASMDVYNRELDEHTTQIDLFRIFSMSEEFKYVSVRYEEKRELKQLLEKAPIPIREDIDDPLAKVNVLLQSYFSQLKFEGFALNSDIVFIHQNAGRLLRAMFEICLKRGWGHPTRMLLNLCKSATTKMWPTNCPLRQFKTCPVEVIKRLEASTVPWGDYLQLETPAEVGRAIRSEKYGKQVYDLLKRFPKMSVTCNAQPITRSVMRFNIEIIADWIWDMNVHGSLEPFLLMLEDTDGDSILYYDVLFITPDIVGHEFTLSFTYELKQHNQNNLPPNFFLTLISENWWHSEFEIPVSFNGFKLPKKFPPPTPLLENISISTSELGNDDFSEVFEFKTFNKIQSQVFESLYNSNDSVFVGSGKGTGKTAMAELALLNHWRQNKGRAVYINPSGEKIDFLLSDWNKRFSHLAGGKIINKLGNDPSLNLKLLAKSHVLLATPVQFELLSRRWRQRKNIQSLELMIYDDAHEISQGVYGAVYETLISRMIFIATQLEKKIRFVCLSNCLANARDFGEWAGMTKSNIYNFSPSERIEPLEINIQSFKDVEHISFNFSMLQMAFEASAAAAGNRNSSSVFLPSRKDCMEVASAFMKFSKAIEWDMLNVEEEQIVPYIEKLTDGHLRAPLKHGVGILYKGMASNDERIVKRLYEYGAVSVLLISKDCSAFACKTDEVIILGTNLYDGAEHKYMPYTINELLEMVGLASGNDSMAGKVLILTSHNMKAYYKKFLIEPLPTESYLQYIIHDTLNNEIANSIIQSKQDCVDWFTYSYFYRRIHVNPSYYGVRDTSPHGISVFLSNLVETCLNDLVESSFIEIDDTEAEVTAEVNGGDDEATEIISTLSNGLIASHYGVSFFTIQSFVSSLSNTSTLKNMLYVLSTAVEFESVPLRKGDRALLVKLSKRLPLRFPEHTSSGSVSFKVFLLLQAYFSRLELPVDFQNDLKDILEKVVPLINVVVDILSANGYLNATTAMDLAQMLIQGVWDVDNPLRQIPHFNNKILEKCKEINVETVYDIMALEDEERDEILTLTDSQLAQVAAFVNNYPNVELTYSLNNSDSLISGVKQKITIQLTRDVEPENLQVTSEKYPFDKLESWWLVLGEVSKKELYAIKKVTLNKETQQYELEFDTPTSGKHNLTIWCVCDSYLDADKELSFEINVK

The variants in one assay derive from B1. Kind of assay: Y2H interaction assay; growth on -LWH medium with 3-AT; parent: 50 nM.
chain 1 H476D: the screen value is 50 mM. Turning to chain 1 Q685H, the screen value worked out at 50 mM. For the variant chain 1 R456K, chain 1 G691R, the screen value came to 0 mM. For chain 1 T507A, the screen value came to 50 mM. For chain 1 K379R, the screen value stood at 50 mM. Same read-out and setting: to chain 1 R686Q belongs 50 mM; to chain 1 R686I, 0 mM. Consider chain 1 L335F, for which the screen value amounted to 50 mM. Same read-out and setting: next, chain 1 D473E: 50 mM.

In another assay the parent is B1. The assay is described as above. This is another data set of the same source.
On to chain 2 R1899G, for which the screen value was 150 mM. With chain 2 L1951P, the screen value amounted to 0 mM.

(Values after publication PMC4267655, “Brr2p carboxy-terminal Sec63 domain modulates Prp16 splicing RNA helicase” (Nucleic Acids Research, 2014).)
